Sequences and labels used below:
B1: anti-PD-1 single-domain antibody clone 1D3, histidine-tagged, from E. coli (VHH)
VHH: QVQLVESGGGLVQPGGSLNLSCVASGSVFIIDVMAWYRQAPGKQRELVAQIINGGATYYADSVKGRFTISRDDTKTTLYLQMNSLKPDDTAVYYCSAEKFNPYRDSTHFWGQGTQVTVSS
notes: Alpaca VHH expressed in E. coli Rosetta (DE3) from pET32a+, purified on a Ni column; not shown: C-terminal histidine tag
B2: anti-PD-1 single-domain antibody clone 1A9, histidine-tagged, from E. coli (VHH)
VHH: B1 VHH with S27N, Y79N, S120A
notes: as for B1
B3: anti-PD-1 single-domain antibody clone 2D9, histidine-tagged, from E. coli (VHH)
VHH: B1 VHH with N19R, V23A, G55D, T57K, D73N, K99Q, H108Y
notes: as for B1
B4: anti-PD-1 single-domain antibody clone 2C4, histidine-tagged, from E. coli (VHH)
VHH: B1 VHH with Q13R, N19R, V23A, N53S, G55D, A56H, T57A, H108Y
notes: as for B1
B5: anti-PD-1 single-domain antibody clone 1H1, histidine-tagged, from E. coli (VHH)
VHH: B1 VHH with T57S, D73N, Y79F, D88A, S96N, H108N
notes: as for B1
B6: anti-PD-1 single-domain antibody clone 1A4, histidine-tagged, from E. coli (VHH)
VHH: B1 VHH with S27N, G55D, T57K, A60V, D73N, V92I, H108N
notes: as for B1
B7: anti-PD1 single-domain antibody clone 1D3, displayed on recombinant phage (VHH, not shown: large carriers)
VHH: B1 VHH
notes: Tested as phage supernatant in the screening ELISAs of Embodiment 2.2
B8: anti-PD1 single-domain antibody clone 1A9, displayed on recombinant phage (VHH, not shown: large carriers)
VHH: B1 VHH with S27N, Y79N, S120A
notes: as for B7
B9: anti-PD1 single-domain antibody clone 1A4, displayed on recombinant phage (VHH, not shown: large carriers)
VHH: B1 VHH with S27N, G55D, T57K, A60V, D73N, V92I, H108N
notes: as for B7
B10: anti-PD1 single-domain antibody clone 1H1, displayed on recombinant phage (VHH, not shown: large carriers)
VHH: B1 VHH with T57S, D73N, Y79F, D88A, S96N, H108N
notes: as for B7
B11: anti-PD1 single-domain antibody clone 2C4, displayed on recombinant phage (VHH, not shown: large carriers)
VHH: B1 VHH with Q13R, N19R, V23A, N53S, G55D, A56H, T57A, H108Y
notes: as for B7
B12: anti-PD1 single-domain antibody clone 2D9, displayed on recombinant phage (VHH, not shown: large carriers)
VHH: B1 VHH with N19R, V23A, G55D, T57K, D73N, K99Q, H108Y
notes: as for B7

Numbering of substitutions follows the chain as printed.

One assay addresses T1, HSA (purchased from Sigma) (human, UniProt P02768 25-609).
T1 construct: Control coat for the HSA part of hPD1-HSA; also called human serum albumin
The assay is described as follows: ELISA, HSA coated 200 ng/well, VHH 1 µg/mL, anti-his detection. On the procedure:
(§1) Human hPD1-HSA, mouse mPD1-HSA (SEQ ID NO: 57) or HSA (purchased from Sigma) were coated on plates at 200 ng/well overnight at 4° C. and blocked with 5% skim milk at room temperature for 1 hour. Purified histidine-tagged anti-PD-1 single-domain antibody was diluted to 1 μg/mL and incubated at 37° C. for 1 hour with 100 μL per well. After washing with PBST 3 times, a mouse anti-his tag antibody (R&D Systems, Inc) diluted 1:5000 was added at 100 μl/well and incubated at room temperature for 1 hour. After washing with PBST, HRP-Goat anti-mouse IgG antibody (Thermo Scientific) diluted 1:10000 was added at 100 μl/well and incubated at room temperature for 1 hour. After washing with PBST, TMB color developing solution (Beijing ComWin Biotech Co., Ltd.) was added for color development and OD value was measured at 450 nm.
On the technique in general: ELISA stands for enzyme-linked immunosorbent assay.
With B1, the OD450 nm is 0.029 OD450 nm.
Still for that read-out and setting: the figure for B2 is 0.035 OD450 nm; for B3 it is 0.019 OD450 nm; for B4 it is 0.022 OD450 nm.
On the same count and under the same terms, under B5 stands 0.031 OD450 nm.
With B6, the OD450 nm amounted to 0.021 OD450 nm.

A further assay deals with T2, mouse mPD1-HSA fusion protein (mouse).
T2 construct: also called mouse PD-1
The assay is described as follows: ELISA, mPD1-HSA coated 200 ng/well, anti-his detection. On the procedure: as §1
As for B1, the binding result is “no binding (tested: 1 µg/mL)”.
For the molecule B2, the binding result is recorded as “no binding (tested: 1 µg/mL)”.
Same read-out and setting: under B3 stands “no binding (tested: 1 µg/mL)”; under B4, “no binding (tested: 1 µg/mL)”; under B5, “no binding (tested: 1 µg/mL)”.
As to B6, the binding result is “no binding (tested: 1 µg/mL)”.

For the next assay, the target named is T3, Monkey RhPD1-HSA fusion protein (monkey).
T3 construct: also called monkey PD-1
Kind of assay: ELISA, RhPD1-HSA coated 200 ng/well, VHH 1 µg/mL, anti-his detection. On the procedure: as §1, with “Monkey RhPD1-HSA fusion protein” for “Human hPD1-HSA, mouse mPD1-HSA”, “No. 30) was” for “NO: 57) or HSA (purchased from Sigma) were”, “anti-PD1” for “anti-PD-1”, “solution” for “solution (Beijing ComWin Biotech Co., Ltd.)”
The molecule B1 had an OD450 nm of 2.1 OD450 nm.
The same measure, in the same setting: under B2 stands 2.02 OD450 nm.
Still for that read-out and setting: under B3 stands 2.1 OD450 nm; under B4, 2.03 OD450 nm.
Still for that read-out and setting: the figure for B5 is 2.02 OD450 nm.
Take B6: the OD450 nm was determined as 2 OD450 nm.

The next assay concerns the target fusion protein hPD1-Fc composed of the PD-1 extracellular domain sequence and human IgG1 FC (human). The assay is described as follows: competitive phage ELISA on coated hPD1-Fc; competitor Bio-hPDL1-HSA. On the procedure: After washing 3 times with PBST, 100 μl of Streptavidin-HRP diluted 1:50000 (Jackson ImmunoResearch Inc) was added to each well and incubated at 37° C. for 1 hour. After washing 3 times with PBS, TMB color development working solution (Beijing ComWin Biotech Co., Ltd.) was added and incubated at room temperature for 5 minutes to develop color, then 1M sulfuric acid was added to terminate the reaction and OD450 nm reading was recorded. […] Competitive positive clones were selected for sequencing and duplicate sequences were removed.
On to B7, for which the binding result was “binds”.
For B8, the binding result was “binds”.
The same measure, in the same setting: the entry for B9 is “binds”; for B10 it is “binds”; for B11 it is “binds”.
In the case of B12, the binding result is “binds”.

For another assay, the target named is T4, fusion protein hPD1-HSA composed of a PD1 extracellular domain sequence and a human serum albumin sequence (human).
T4 construct: PD-1 extracellular domain fused to HSA; also called Human hPD1-HSA; human PD-1
The assay is described as follows: ELISA, hPD1-HSA coated 200 ng/well, VHH 1 µg/mL, anti-his detection. On the procedure: as §1
For B1, the OD450 nm amounted to 2.1 OD450 nm.
B2 gave an OD450 nm of 2.12 OD450 nm.
The same measure, in the same setting: under B3 stands 2.11 OD450 nm; under B4, 2.14 OD450 nm.
Take B5: the OD450 nm stood at 2.17 OD450 nm.
B6: the OD450 nm is 2.13 OD450 nm.

The values are drawn from patent publication US20240092908A1 (ZHEJIANG DOER BIOLOGICS, published 2024).
